PMC10979056 (Heliyon, 2024)

Legend:
[1] = molecular target: human TIM-3-His (human, UniProt Q8TDQ0); assay: ELISA
[2] = molecular target: cynomolgus TIM-3-hFc (Macaca fascicularis, UniProt A0A2K5U3G7); assay: BLI

B1: MsT001 (antibody, V domains shown)
VH: EVQLQQSGAEVVMPGASVKMSCKTSGYTFTDYLIHWVKQRPGQGLVWIGAIDTSDSYASYNQKFKGKATLTLDESSRTAYMQLSSLTSEDSAVYFCTGEGLDYWGQGTSVTVSS
VL: DIQMTQTPLSLPVSLGDQASISCRSSQSLVHSNGNTYLNWYLQKPGQSPKLLIYKVSYRFSGVPDRFSGSGSGTDFTLKISRVEAEDLGVYFCSQSTHVPPLTFGAGTKLELK
- sensitivity (lowest detectable concentration of coated TIM-3-His) [1]: 1 ng/mL

B2: MsT229 (antibody, V domains shown)
VH: EIQLVQSGPELVKPGASMKMSCKASGYSFTGYTMNWVKQSHGQNLEWIGLINPQTGGTSYNQNFRGKATLTVDKSSNTAYMELLSLTSEDSAVYYCARERGFDSPGFPYWGQGTLVTVSA
VL: DIQMTQTTSSLSASLGDRVTISCRASQDISNYLNWYQQKPDGTVKLLIYYTSRLHSGVPSRFSGSGSGTDYSLTISNLEQEDIATYFCQQGNTLPLTFGAGTKLELK
- Kd [2]: 0.0179 nM
- sensitivity (lowest detectable concentration of coated TIM-3-His) [1]: 10 ng/mL

B3: MsT229-Bio (antibody, V domains shown)
VH: EIQLVQSGPELVKPGASMKMSCKASGYSFTGYTMNWVKQSHGQNLEWIGLINPQTGGTSYNQNFRGKATLTVDKSSNTAYMELLSLTSEDSAVYYCARERGFDSPGFPYWGQGTLVTVSA
VL: DIQMTQTTSSLSASLGDRVTISCRASQDISNYLNWYQQKPDGTVKLLIYYTSRLHSGVPSRFSGSGSGTDYSLTISNLEQEDIATYFCQQGNTLPLTFGAGTKLELK
- sensitivity (lowest detectable concentration of coated TIM-3-His) [1]: 1 ng/mL

B4: MsT286 (antibody, V domains shown)
VH: QVQLQQSGPELVKPGASMKMSCKASGYSFTGYTMNWVKQSHGQNLEWIGLINPQTGGTSYNQNFRGKATLTVDKSSNTAYMELLSLTSEDSAVYYCARERGFDSPGFPYWGQGTLVTVSA
VL: not shown
- Kd [2]: 0.914 nM
- sensitivity (lowest detectable concentration of coated TIM-3-His) [1]: 1 ng/mL
